Among the targets are MAGI1_6, Q96QZ7; MAGI3_3, Q5TCQ9; MAGIX, Q9H6Y5; NHERF4_3, Q86UT5; SDCBP_1, O00560; TJP1_1, Q07157.
Holding throughout (test): holdup assay
Parameters in all cases: key: below the threshold = too weak to quantify, mostly under pKd 3.1 to 4

The target of another assay is T1, DLG3_1, Q92796.
T1 sequence (Q92796 125-227, limits assumed, looked up): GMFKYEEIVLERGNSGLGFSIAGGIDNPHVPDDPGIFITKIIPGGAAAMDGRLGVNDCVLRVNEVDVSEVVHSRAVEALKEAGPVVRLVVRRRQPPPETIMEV

The next assay deals with T2, MAGI2_1, Q86UL8.
T2 sequence (Q86UL8 12-111, limits assumed, looked up): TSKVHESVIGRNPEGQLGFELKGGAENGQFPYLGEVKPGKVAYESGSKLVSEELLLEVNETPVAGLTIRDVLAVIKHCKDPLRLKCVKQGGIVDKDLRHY

The target of the next assay is T3, MPDZ_3, O75970.
T3 sequence (O75970 372-473, limits assumed, looked up): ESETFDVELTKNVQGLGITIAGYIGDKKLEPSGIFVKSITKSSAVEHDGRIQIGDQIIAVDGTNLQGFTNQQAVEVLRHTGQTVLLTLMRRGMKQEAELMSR

A further assay has as its target T4, MPDZ_6, O75970.
T4 sequence (O75970 1003-1099, limits assumed, looked up): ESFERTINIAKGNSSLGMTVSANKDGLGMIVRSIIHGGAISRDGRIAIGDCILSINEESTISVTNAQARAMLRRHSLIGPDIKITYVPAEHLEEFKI

In a further assay the target is T5, MPP1, Q00013.
T5 sequence (Q00013 66-162, limits assumed, looked up): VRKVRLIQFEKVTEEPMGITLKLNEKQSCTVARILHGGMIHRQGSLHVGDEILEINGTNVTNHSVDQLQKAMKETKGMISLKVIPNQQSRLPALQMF

Another assay has as its target T6, NHERF3_2, Q5T2W1.
T6 sequence (Q5T2W1 129-225, limits assumed, looked up): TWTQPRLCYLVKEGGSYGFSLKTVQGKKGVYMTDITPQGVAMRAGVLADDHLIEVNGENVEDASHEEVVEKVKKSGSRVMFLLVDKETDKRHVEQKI

In a further assay the target is T7, PARD3B_1, Q8TEW8.
T7 sequence (Q8TEW8 196-299, limits assumed, looked up): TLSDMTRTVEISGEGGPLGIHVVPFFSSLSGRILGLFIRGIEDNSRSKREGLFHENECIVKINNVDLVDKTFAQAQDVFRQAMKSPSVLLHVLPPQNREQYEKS

A further assay deals with T8, PARD6B, Q9BYG5.
T8 sequence (Q9BYG5 152-260, limits assumed, looked up): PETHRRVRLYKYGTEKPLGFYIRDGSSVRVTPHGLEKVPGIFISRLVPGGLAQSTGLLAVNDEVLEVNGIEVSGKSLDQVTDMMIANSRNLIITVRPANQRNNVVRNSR

The target of the next assay is T9, PDZD2_4, O15018.
T9 sequence (O15018 723-823, limits assumed, looked up): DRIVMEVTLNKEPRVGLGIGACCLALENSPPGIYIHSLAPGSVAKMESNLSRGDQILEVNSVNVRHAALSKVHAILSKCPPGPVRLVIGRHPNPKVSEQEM

In a further assay the target is T10, PDZD2_5, O15018.
T10 sequence (O15018 2617-2716, limits assumed, looked up): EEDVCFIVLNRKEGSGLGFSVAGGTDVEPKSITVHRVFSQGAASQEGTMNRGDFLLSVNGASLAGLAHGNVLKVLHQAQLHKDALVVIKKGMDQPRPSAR

In the next assay the target is T11, PDZD2_6, O15018.
T11 sequence (O15018 2745-2839, limits assumed, looked up): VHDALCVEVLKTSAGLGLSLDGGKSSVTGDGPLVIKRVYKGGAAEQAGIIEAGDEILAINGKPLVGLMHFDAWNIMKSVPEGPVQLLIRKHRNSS

The target in another assay is T12, PDZD4, Q76G19.
T12 sequence (Q76G19 125-224, limits assumed, looked up): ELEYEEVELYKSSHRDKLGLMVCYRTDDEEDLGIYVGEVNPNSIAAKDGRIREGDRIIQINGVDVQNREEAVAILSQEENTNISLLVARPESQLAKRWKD

A further assay has as its target T13, PREX2_2, Q70Z35.
T13 sequence (Q70Z35 672-764, limits assumed, looked up): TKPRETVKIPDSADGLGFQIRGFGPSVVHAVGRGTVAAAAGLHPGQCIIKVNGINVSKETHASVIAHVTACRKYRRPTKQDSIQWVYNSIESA

The next assay has as its target T14, SHANK3, Q9BYB0.
T14 sequence (Q9BYB0 641-750, limits assumed, looked up): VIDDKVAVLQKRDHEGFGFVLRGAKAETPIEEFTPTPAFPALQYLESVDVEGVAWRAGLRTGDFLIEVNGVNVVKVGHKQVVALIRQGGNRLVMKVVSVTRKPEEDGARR

For the next assay, the target named is T15, TJP3_2, O95049.
T15 sequence (O95049 190-282, limits assumed, looked up): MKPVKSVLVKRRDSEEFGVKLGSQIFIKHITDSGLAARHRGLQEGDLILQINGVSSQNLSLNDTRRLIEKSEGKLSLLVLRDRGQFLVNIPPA

[1] abbreviates: modified: acetyl on K at position -1 from the C-terminal residue.
The mark [2] stands for this setting: modified: phospho on S at position -3 from the C-terminal residue.
Where [3] appears, read: plain residues with an end cap or a label only (N-terminal biotin on a linker: (peg)3).

MAGI1_6, Q96QZ7, sequence (Q96QZ7 1146-1238): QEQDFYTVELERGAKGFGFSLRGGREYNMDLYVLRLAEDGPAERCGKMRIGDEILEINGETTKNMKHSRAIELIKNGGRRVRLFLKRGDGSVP
MAGIX, Q9H6Y5, sequence (Q9H6Y5 118-211): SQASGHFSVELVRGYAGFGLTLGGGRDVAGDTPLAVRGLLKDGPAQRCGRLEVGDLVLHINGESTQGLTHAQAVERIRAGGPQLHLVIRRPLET
MAGI3_3, Q5TCQ9, sequence (Q5TCQ9 572-655): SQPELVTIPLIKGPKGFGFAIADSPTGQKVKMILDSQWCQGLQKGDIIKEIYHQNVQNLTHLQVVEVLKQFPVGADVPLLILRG
TJP1_1, Q07157, sequence (Q07157 18-120): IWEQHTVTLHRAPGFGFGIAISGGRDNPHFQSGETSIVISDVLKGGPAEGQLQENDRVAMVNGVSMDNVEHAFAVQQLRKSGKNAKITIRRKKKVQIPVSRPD
SDCBP_1, O00560, sequence (O00560 111-198): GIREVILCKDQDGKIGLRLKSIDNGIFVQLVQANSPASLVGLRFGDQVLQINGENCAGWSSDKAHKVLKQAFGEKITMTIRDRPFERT
NHERF4_3, Q86UT5, sequence (Q86UT5 325-412): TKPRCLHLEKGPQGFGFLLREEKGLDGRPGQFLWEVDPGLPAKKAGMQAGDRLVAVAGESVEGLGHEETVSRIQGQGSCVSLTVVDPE

Turning to DEDQHTQITKV [PTEN_Ac, P60484], the negative logarithm of the Kd (pKd) entry is on record as “below the threshold” with DLG3_1, Q92796 (setting [1]); “below the threshold” with MAGI1_6, Q96QZ7 (setting [1]); “below the threshold” with MAGI2_1, Q86UL8 (setting [1]); “below the threshold” in the assay with MAGI3_3, Q5TCQ9 (setting [1]); “below the threshold” with MAGIX, Q9H6Y5 (setting [1]); “below the threshold” with MPDZ_3, O75970 (setting [1]). Moreover, the pKd entry is “below the threshold” in the assay with MPDZ_6, O75970 (setting [1]); “below the threshold” with MPP1, Q00013 (setting [1]); 3.61 in the assay with NHERF3_2, Q5T2W1 (setting [1]); “below the threshold” with NHERF4_3, Q86UT5 (setting [1]); “below the threshold” with PARD3B_1, Q8TEW8 (setting [1]); “below the threshold” with PARD6B, Q9BYG5 (setting [1]). For the same molecule, the negative-log Kd (pKd) result is “below the threshold” with PDZD2_4, O15018 (setting [1]); “below the threshold” with PDZD2_5, O15018 (setting [1]); “below the threshold” with PDZD2_6, O15018 (setting [1]); “below the threshold” with PDZD4, Q76G19 (setting [1]); “below the threshold” in the assay with PREX2_2, Q70Z35 (setting [1]); “below the threshold” with SDCBP_1, O00560 (setting [1]). The pKd with SHANK3, Q9BYB0 (setting [1]) was 4.04; with TJP1_1, Q07157 (setting [1]), 3.94; with TJP3_2, O95049 (setting [1]) it was “below the threshold”.

Regarding RRVRKLPSTTL [RPS6KA1_-3P, Q15418], the pKd entry in the assay with DLG3_1, Q92796 (setting [2]) was “below the threshold”; in the assay with MAGI1_6, Q96QZ7 (setting [2]), “below the threshold”; in the assay with MAGI2_1, Q86UL8 (setting [2]), “below the threshold”; with MAGI3_3, Q5TCQ9 (setting [2]) it was “below the threshold”; with MAGIX, Q9H6Y5 (setting [2]), “below the threshold”; in the assay with MPDZ_3, O75970 (setting [2]), “below the threshold”. Further, the pKd entry is “below the threshold” with MPDZ_6, O75970 (setting [2]); “below the threshold” in the assay with MPP1, Q00013 (setting [2]); “below the threshold” in the assay with NHERF3_2, Q5T2W1 (setting [2]); “below the threshold” with NHERF4_3, Q86UT5 (setting [2]); 4.62 with PARD3B_1, Q8TEW8 (setting [2]); “below the threshold” in the assay with PARD6B, Q9BYG5 (setting [2]). Besides, the pKd entry is reported as “below the threshold” with PDZD2_4, O15018 (setting [2]); “below the threshold” in the assay with PDZD2_5, O15018 (setting [2]); “below the threshold” in the assay with PDZD2_6, O15018 (setting [2]); “below the threshold” with PDZD4, Q76G19 (setting [2]); “below the threshold” in the assay with PREX2_2, Q70Z35 (setting [2]); “below the threshold” with SDCBP_1, O00560 (setting [2]). The pKd result was “below the threshold” in the assay with SHANK3, Q9BYB0 (setting [2]); “below the threshold” with TJP1_1, Q07157 (setting [2]); “below the threshold” with TJP3_2, O95049 (setting [2]).

On to YDEPTTTTSVPL [SARS-Cov2-3a, P0DTC3], for which the pKd result with DLG3_1, Q92796 (setting [3]) is “below the threshold”; with MAGI1_6, Q96QZ7 (setting [3]), “below the threshold”; with MAGI2_1, Q86UL8 (setting [3]) it was “below the threshold”; with MAGI3_3, Q5TCQ9 (setting [3]) it was “below the threshold”; in the assay with MAGIX, Q9H6Y5 (setting [3]), “below the threshold”; in the assay with MPDZ_3, O75970 (setting [3]), “below the threshold”. Also, the pKd entry in the assay with MPDZ_6, O75970 (setting [3]) was “below the threshold”; in the assay with MPP1, Q00013 (setting [3]) it was “below the threshold”; with NHERF3_2, Q5T2W1 (setting [3]), “below the threshold”; with NHERF4_3, Q86UT5 (setting [3]), “below the threshold”; in the assay with PARD3B_1, Q8TEW8 (setting [3]), 4.12; with PARD6B, Q9BYG5 (setting [3]), “below the threshold”. Moreover, the pKd entry with PDZD2_4, O15018 (setting [3]) was “below the threshold”; with PDZD2_5, O15018 (setting [3]) it was “below the threshold”; with PDZD2_6, O15018 (setting [3]), “below the threshold”; with PDZD4, Q76G19 (setting [3]), “below the threshold”; with PREX2_2, Q70Z35 (setting [3]), “below the threshold”; with SDCBP_1, O00560 (setting [3]) it was “below the threshold”. Further, the pKd entry in the assay with SHANK3, Q9BYB0 (setting [3]) is recorded as “below the threshold”; with TJP1_1, Q07157 (setting [3]), “below the threshold”; in the assay with TJP3_2, O95049 (setting [3]), “below the threshold”.
